One assay has as its target FZD7 CRD, Fc-tagged (human, UniProt O75084 33-185). The assay can be described thus: kinetic table (called BLI in paragraph 170); the row labels kd and ka are interchanged on the sheet: the KD row equals the 10^-3 row divided by the 10^5 row.
The target of the next assay is T1, FZD1 CRD, Fc-tagged (human, UniProt Q9UP38 70-250).
T1 construct: domain: CRD; Bought; not shown: Fc tag of the purchased fusion
Described as above.

Another assay concerns the target T2, FZD2 CRD, Fc-tagged (human, UniProt Q14332 24-190).
T2 construct: domain: CRD; Bought; not shown: Fc tag of the purchased fusion
The description is as above.

Assay [1] deals with T3, human LRP6 ECD, Fc-tagged (human, UniProt O75581 20-1370).
T3 construct: extracellular domain; Bought; also called LRP co-receptor; not shown: Fc tag of the purchased fusion
T3 sequence (looked up): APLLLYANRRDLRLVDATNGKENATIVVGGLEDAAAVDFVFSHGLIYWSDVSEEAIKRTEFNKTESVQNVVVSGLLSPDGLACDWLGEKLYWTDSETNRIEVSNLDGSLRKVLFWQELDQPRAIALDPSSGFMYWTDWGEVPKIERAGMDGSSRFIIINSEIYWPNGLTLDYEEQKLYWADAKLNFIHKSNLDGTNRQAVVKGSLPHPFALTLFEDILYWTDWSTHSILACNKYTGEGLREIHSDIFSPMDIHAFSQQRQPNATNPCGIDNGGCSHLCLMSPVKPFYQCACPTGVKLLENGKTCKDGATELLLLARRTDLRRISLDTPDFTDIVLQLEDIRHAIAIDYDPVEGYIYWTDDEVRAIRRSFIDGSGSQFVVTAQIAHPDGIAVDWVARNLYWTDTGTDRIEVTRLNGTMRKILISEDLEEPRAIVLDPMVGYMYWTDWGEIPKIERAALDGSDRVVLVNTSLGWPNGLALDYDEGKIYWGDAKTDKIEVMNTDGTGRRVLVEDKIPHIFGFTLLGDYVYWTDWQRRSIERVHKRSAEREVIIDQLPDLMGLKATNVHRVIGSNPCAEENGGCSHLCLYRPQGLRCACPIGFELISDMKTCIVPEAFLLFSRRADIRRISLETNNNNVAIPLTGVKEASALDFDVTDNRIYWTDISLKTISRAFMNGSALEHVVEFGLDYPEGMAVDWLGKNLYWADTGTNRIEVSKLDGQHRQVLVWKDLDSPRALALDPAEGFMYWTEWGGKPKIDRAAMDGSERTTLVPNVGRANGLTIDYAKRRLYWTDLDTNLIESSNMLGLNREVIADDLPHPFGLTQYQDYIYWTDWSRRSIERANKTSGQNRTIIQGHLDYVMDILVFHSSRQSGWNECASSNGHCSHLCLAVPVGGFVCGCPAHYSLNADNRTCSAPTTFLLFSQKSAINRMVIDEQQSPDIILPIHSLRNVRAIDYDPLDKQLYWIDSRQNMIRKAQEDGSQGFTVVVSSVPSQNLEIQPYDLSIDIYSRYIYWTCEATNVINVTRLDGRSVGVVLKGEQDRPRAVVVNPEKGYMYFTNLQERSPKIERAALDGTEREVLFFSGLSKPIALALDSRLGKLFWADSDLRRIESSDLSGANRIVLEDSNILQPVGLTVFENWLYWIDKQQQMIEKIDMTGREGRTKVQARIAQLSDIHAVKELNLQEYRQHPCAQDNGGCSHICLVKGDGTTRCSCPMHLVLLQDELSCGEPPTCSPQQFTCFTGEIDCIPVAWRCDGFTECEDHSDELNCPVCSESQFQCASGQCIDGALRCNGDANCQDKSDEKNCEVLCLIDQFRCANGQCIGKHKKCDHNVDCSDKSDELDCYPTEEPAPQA
The assay is described as above.

Assay [2] deals with T3, human LRP6 ECD, Fc-tagged. The assay can be described thus: BLI kinetics, human LRP6 ECD.

T1 sequence (Q9UP38 70-250): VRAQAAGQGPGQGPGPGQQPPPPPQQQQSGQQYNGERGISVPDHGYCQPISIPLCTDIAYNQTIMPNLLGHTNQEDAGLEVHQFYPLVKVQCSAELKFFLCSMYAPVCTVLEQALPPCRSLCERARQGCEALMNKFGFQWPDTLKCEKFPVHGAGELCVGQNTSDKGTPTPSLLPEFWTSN

B1: F^P+P-L6^1+3 (5019-K/H-2539-2542) (bispecific antibody)
chain 1: EVQLVESGGGLVQPGGSLRLSCAASGFNIGSSSIHWVRQAPGKGLEWVASIYSAFASTSYADSVKGRFTISADTSKNTAYLQMNSLRAEDTAVYYCARYHFPFGFALDYWGQGTLVTVSSGGGGSDIQMTQSPSSLSASVGDRVTITCRASQSVSSAVAWYQQKPGKAPKLLIYSASSLYSGVPSRFSGSRSGTDFTLTISSLQPEDFATYYCQQGVYLFTFGQGTKVEIKLEDKTHTKVEPKTSDKTHTCPPCPAPELLGGPSVFLFPPKPKDTLMISRTPEVTCVVVDVSHEDPEVKFNWYVDGVEVHNAKTKPREEQYNSTYRVVSVLTVLHQDWLNGKEYKCKVSNKALPAPIEKTISKAKGQPREPMVFDLPPSREEMTKNQVSLWCMVKGFYPSDIAVEWESNGQPENNYKTTPPVLDSDGSFFLYSKLTVDKSRWQQGNVFSCSVMHEALHNHYTQKSLSLSPGKSGSETPGTSESATPESGGGEVQLVESGGGLVQPGGSLRLSCAASGFNISYSSIHWVRQAPGKGLEWVAYISSYYGYTYYADSVKGRFTISADTSKNTAYLQMNSLRAEDTAVYYCARAHYFPWAGAMDYWGQGTLVTVSSGGGGSDIQMTQSPSSLSASVGDRVTITCRASQSVSSAVAWYQQKPGKAPKLLIYSASSLYSGVPSRFSGSRSGTDFTLTISSLQPEDFATYYCQQYYWPITFGQGTKVEIK
chain 2: EVQLVESGGGLVQPGGSLRLSCAASGFNIGSSSIHWVRQAPGKGLEWVASIYSAFASTSYADSVKGRFTISADTSKNTAYLQMNSLRAEDTAVYYCARYHFPFGFALDYWGQGTLVTVSSGGGGSDIQMTQSPSSLSASVGDRVTITCRASQSVSSAVAWYQQKPGKAPKLLIYSASSLYSGVPSRFSGSRSGTDFTLTISSLQPEDFATYYCQQGVYLFTFGQGTKVEIKLEDKTHTKVEPKSSDKTHNCPPCPAPELLGGPSVFLFPPKPKDTLMISRTPEVTCVVVDVSHEDPEVKFNWYVDGVEVHNAKTKPREEQYNSTYRVVSVLTVLHQDWLNGKEYKCKVSNKALPAPIEKTISKAKGQPREPQVYTLPPIRELMTSNQVSLSCAVKGFYPSDIAVEWESNGQPENNYKTTPPVLDSDGSFFLVSKLTVDKSRWQQGNVFSCSVMHEALHNHYTQKSLSLSPGKSGSETPGTSESATPESGGGEVQLVESGGGLVQPGGSLRLSCAASGFNISSYYIHWVRQAPGKGLEWVASIYSSYGYTSYADSVKGRFTISADTSKNTAYLQMNSLRAEDTAVYYCARTVRGSKKPYFSGWAMDYWGQGTLVTVSSGGGGSDIQMTQSPSSLSASVGDRVTITCRASQSVSSAVAWYQQKPGKAPKLLIYSASSLYSGVPSRFSGSRSGTDFTLTISSLQPEDFATYYCQQYSWGPFTFGQGTKVEIK
In the case of B1, the koff with FZD7 CRD, Fc-tagged is 2.9e-05 s⁻¹; in the assay with FZD1 CRD, Fc-tagged, below 1e-06 s⁻¹; with FZD2 CRD, Fc-tagged it was 1.9e-05 s⁻¹; in assay [1], 0.00181 s⁻¹. For the same molecule, the kon with FZD7 CRD, Fc-tagged was found to be 509000 M⁻¹ s⁻¹; in the assay with FZD1 CRD, Fc-tagged, 395000 M⁻¹ s⁻¹; in the assay with FZD2 CRD, Fc-tagged, 479000 M⁻¹ s⁻¹; in assay [1], 152000 M⁻¹ s⁻¹. Also, the Kd in assay [2] is 12 nM.

Values taken from patent US20210032352A1 (ANTERA THERAPEUTICS, published 2021).
